Earlier results, collected in PMC2920229.

Target: HIV-1 protease (Human immunodeficiency virus 1) (UniProt O93215)

In the case of HIV-1 protease (from UniProt O93215), the Kd is given as under 5 nM.
